Measurements taken from paper PMC8457375 (Chemical Science, 2021).

T1: FADD^DD (UniProt Q13158 97-181)
T1 sequence: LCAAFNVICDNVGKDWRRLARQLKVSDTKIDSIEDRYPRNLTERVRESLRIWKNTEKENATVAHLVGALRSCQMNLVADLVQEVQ


Legend:
FADD^DD [1] = target: FADD^DD (UniProt Q13158)
FADD^DD [2] = target: FADD^DD (UniProt Q13158); assay: ITC
FADD^DD [3] = target: T1, FADD^DD; assay: cell-based or functional assay
FADD^DD [4] = target: T1, FADD^DD; assay: ITC

| Molecule | Km for FADD^DD, glycosylation kinetics (FADD^DD [1]) [µM] | Kd (FADD^DD [2]) [nM] | Km for FADD^DD, glycosylation kinetics, fold worse than that of NleB1^EHEC (FADD^DD [3]) [fold] | fold by which the Kd of NleB1^EHEC is better (FADD^DD [4]) [fold] |
| --- | --- | --- | --- | --- |
| NleB1^EHEC (enzyme) | 13 | 200 |  |  |
| S286Y^SseK1 (enzyme) MIPPLNRYVPALSKNELVKTVTNRDIQFTSFNGKDYPLCFLDEKTPLLFQWFERNPARFGKNDIPIINTEKNPYLNNIIKAATIEKERLIGIFVDGDFFPGQKDAFSKLEYDYENIKVIYRNDIDFSMYDKKLSEIYMENISKQESMPEEKRDCHLLQLLKKELSDIQEGNDSLIKSYLLDKGHGWFDFYRNMAMLKAGQLFLEADKVGCYDLSTNSGCIYLDADMIITEKLGGIYIPDGIAVHVERIDGRASMENGIIAVDRNNHPALLAGLEIMHTKFDADPYYDGVCNGIRKHFNYSLNEDYNSFCDFIEFKHDNIIMNTSQFTQSSWARHVQ |  |  | 4.4 | ~6 |
| N302Y^SseK2 (enzyme) MARFNAAFTRIKIMFSRIRGLISCQSNTQTIAPTLSPPSSGHVSFAGIDYPLLPLNHQTPLVFQWFERNPDRFGQNEIPIINTQKNPYLNNIINAAIIEKERIIGIFVDGDFSKGQRKALGKLEQNYRNIKVIYNSDLNYSMYDKKLTTIYLENITKLEAQSASERDEVLLNGVKKSLEDVLKNNPEETLISSHNKDKGHLWFDFYRNLFLLKGSDAFLEAGKPGCHHLQPGGGCIYLDADMLLTDKLGTLYLPDGIAIHVSRKDNHVSLENGIIAVNRSEHPALIKGLEIMHSKPYGDPYYDWLSKGLRHYFDGSHIQDYDAFCDFIEFKHENIIMNTSSLTASSWR |  |  |  | ~472 |
